According to publication PMC2810376 (The EMBO Journal, 2010):
One block for each binder: values may come before it.

Assays:
[1] = target: Rpb2, second largest subunit of RNA polymerase II (S. cerevisiae, UniProt P08518 1-1224); experiment: cross-linking
[2] = target: Rpb1, subunit of RNA polymerase II (S. cerevisiae, UniProt P04050 1-1733); experiment: cross-linking
Chain of Rpb1, subunit of RNA polymerase II (P04050 whole entry): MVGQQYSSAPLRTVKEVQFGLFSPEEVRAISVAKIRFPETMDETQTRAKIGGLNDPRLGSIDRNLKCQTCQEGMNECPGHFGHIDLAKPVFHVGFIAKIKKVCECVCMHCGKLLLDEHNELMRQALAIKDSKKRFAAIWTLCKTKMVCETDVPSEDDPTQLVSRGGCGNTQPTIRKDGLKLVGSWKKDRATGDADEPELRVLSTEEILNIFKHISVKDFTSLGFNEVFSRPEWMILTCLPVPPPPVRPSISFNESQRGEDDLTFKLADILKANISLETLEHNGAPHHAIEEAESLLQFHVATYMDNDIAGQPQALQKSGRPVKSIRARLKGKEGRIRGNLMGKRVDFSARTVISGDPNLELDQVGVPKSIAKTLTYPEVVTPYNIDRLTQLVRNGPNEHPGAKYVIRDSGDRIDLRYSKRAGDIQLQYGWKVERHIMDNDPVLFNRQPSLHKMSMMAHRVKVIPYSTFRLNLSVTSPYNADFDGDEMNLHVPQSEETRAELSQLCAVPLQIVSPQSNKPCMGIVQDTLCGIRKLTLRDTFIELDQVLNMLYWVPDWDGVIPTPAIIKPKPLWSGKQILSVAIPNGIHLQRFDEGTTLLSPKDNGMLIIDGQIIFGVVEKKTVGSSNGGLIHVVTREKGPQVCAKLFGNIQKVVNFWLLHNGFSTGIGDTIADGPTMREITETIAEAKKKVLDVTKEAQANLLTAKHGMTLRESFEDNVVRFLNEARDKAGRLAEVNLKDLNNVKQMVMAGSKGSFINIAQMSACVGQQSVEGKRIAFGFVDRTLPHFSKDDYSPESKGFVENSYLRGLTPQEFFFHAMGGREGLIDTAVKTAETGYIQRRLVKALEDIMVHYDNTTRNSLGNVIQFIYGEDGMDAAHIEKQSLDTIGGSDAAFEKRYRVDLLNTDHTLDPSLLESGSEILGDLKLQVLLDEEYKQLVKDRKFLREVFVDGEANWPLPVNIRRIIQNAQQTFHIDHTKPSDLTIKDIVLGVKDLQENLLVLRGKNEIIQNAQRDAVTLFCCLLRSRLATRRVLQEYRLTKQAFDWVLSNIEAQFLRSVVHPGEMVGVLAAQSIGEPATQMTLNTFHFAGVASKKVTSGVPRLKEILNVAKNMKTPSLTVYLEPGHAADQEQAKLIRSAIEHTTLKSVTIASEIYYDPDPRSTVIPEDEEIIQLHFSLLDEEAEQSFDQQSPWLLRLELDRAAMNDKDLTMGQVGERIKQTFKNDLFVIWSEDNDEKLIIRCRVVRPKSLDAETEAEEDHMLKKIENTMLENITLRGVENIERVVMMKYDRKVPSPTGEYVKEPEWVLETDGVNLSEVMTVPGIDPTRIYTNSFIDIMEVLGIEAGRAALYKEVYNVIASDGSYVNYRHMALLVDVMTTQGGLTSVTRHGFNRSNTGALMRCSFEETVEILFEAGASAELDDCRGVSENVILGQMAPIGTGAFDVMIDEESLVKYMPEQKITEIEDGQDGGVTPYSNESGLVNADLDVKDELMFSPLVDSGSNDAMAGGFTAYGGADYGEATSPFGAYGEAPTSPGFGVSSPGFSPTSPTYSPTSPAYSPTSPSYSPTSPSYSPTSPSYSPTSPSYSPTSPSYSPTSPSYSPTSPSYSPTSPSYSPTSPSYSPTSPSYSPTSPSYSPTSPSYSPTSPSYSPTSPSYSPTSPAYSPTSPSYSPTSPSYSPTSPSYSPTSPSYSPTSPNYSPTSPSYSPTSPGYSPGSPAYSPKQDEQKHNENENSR

Chain of Rpb2, second largest subunit of RNA polymerase II (P08518 whole entry): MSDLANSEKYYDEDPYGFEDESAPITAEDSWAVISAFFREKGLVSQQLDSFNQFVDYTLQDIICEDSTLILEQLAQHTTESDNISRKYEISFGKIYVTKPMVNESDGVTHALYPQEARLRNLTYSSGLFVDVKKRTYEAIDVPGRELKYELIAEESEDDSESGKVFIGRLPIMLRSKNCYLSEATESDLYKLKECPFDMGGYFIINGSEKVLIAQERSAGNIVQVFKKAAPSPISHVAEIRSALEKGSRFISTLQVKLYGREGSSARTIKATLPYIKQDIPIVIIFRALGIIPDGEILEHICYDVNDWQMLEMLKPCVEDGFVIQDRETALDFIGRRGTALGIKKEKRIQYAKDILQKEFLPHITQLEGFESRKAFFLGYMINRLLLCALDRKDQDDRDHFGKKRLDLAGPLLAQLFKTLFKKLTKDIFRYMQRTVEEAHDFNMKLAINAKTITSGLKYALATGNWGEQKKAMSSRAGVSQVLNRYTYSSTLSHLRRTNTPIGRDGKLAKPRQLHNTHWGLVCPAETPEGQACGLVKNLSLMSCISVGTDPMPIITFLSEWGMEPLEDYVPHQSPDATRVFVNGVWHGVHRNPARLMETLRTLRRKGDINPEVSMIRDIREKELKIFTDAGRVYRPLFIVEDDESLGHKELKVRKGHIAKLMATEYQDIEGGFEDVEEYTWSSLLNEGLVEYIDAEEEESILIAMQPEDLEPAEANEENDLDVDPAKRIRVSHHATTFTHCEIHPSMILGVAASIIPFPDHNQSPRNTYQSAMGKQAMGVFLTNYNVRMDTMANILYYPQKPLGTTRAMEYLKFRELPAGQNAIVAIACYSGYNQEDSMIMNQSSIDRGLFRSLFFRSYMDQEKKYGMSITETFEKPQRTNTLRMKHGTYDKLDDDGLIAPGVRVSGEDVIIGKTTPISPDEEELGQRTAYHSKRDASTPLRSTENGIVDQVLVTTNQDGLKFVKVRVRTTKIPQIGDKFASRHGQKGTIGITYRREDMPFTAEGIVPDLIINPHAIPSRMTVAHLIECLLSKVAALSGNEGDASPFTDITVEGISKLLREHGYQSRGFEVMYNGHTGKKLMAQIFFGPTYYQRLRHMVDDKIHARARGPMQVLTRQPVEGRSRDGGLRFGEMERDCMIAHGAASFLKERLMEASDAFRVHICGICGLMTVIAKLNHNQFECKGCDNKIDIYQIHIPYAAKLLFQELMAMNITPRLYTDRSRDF

binding result [1]: binds | binding result [2]: binds
B1: Tfg1, subunit of yeast TFIIF (natural protein, S. cerevisiae, UniProt P41895 1-735, looked up)
chain: MSRRNPPGSRNGGGPTNASPFIKRDRMRRNFLRMRMGQNGSNSSSPGVPNGDNSRGSLVKKDDPEYAEEREKMLLQIGVEADAGRSNVKVKDEDPNEYNEFPLRAIPKEDLENMRTHLLKFQSKKKINPVTDFHLPVRLHRKDTRNLQFQLTRAEIVQRQKEISEYKKKAEQERSTPNSGGMNKSGTVSLNNTVKDGSQTPTVDSVTKDNTANGVNSSIPTVTGSSVPPASPTTVSAVESNGLSNGSTSAANGLDGNASTANLANGRPLVTKLEDAGPAEDPTKVGMVKYDGKEVTNEPEFEEGTMDPLADVAPDGGGRAKRGNLRRKTRQLKVLDENAKKLRFEEFYPWVMEDFDGYNTWVGSYEAGNSDSYVLLSVEDDGSFTMIPADKVYKFTARNKYATLTIDEAEKRMDKKSGEVPRWLMKHLDNIGTTTTRYDRTRRKLKAVADQQAMDEDDRDDNSEVELDYDEEFADDEEAPIIDGNEQENKESEQRIKKEMLQANAMGLRDEEAPSENEEDELFGEKKIDEDGERIKKALQKTELAALYSSDENEINPYLSESDIENKENESPVKKEEDSDTLSKSKRSSPKKQQKKATNAHVHKEPTLRVKSIKNCVIILKGDKKILKSFPEGEWNPQTTKAVDSSNNASNTVPSPIKQEEGLNSTVAEREETPAPTITEKDIIEAIGDGKVNIKEFGKFIRRKYPGAENKKLMFAIVKKLCRKVGNDHMELKKE

binding result [1]: binds
B2: Tfg2, subunit of yeast TFIIF, with a C-terminal TAP tag (natural protein, S. cerevisiae, UniProt P41896 1-400, looked up)
chain: MSSGSAGAPALSNNSTNSVAKEKSGNISGDEYLSQEEEVFDGNDIENNETKVYEESLDLDLERSNRQVWLVRLPMFLAEKWRDRNNLHGQELGKIRINKDGSKITLLLNENDNDSIPHEYDLELTKKVVENEYVFTEQNLKKYQQRKKELEADPEKQRQAYLKKQEREEELKKKQQQQKRRNNRKKFNHRVMTDRDGRDRYIPYVKTIPKKTAIVGTVCHECQVMPSMNDPNYHKIVEQRRNIVKLNNKERITTLDETVGVTMSHTGMSMRSDNSNFLKVGREKAKSNIKSIRMPKKEILDYLFKLFDEYDYWSLKGLKERTRQPEAHLKECLDKVATLVKKGPYAFKYTLRPEYKKLKEEERKATLGELADEQTGSAGDNAQGDAEADLEDEIEMEDVV
